Results taken from patent US20250297021A1.
Several values for one entry are separate records, joined by “and”; a condition that tells them apart may be missing. Identical values can stand only once. Values belong to the substance of their own block, whether it stands above or below them.

How the values were obtained:
[1] = target: human BCMA on cells (human) (UniProt Q02223); assay: cell ELISA, Flp-inCHO-human BCMA cells; Ab 0.14 nM
[2] = target: monkey BCMA on cells (monkey); assay: FACS, Flp-in CHO-monkey BCMA cells
[3] = target: human BCMA-His protein (human) (UniProt Q02223); assay: ELISA, human BCMA-His coated; Ab 0.01 nM
Sequence of human BCMA-His protein (human) (Q02223 1-54 limits assumed): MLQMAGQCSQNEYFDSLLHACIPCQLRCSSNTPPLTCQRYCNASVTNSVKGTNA

[4] = target: human BCMA on cells (human) (UniProt Q02223); assay: cell ELISA, Flp-inCHO-human BCMA cells; Ab 11.11 nM
[5] = target: monkey BCMA-His protein (monkey); assay: ELISA, monkey BCMA-His coated; Ab 1 nM
Sequence of monkey BCMA-His protein (monkey) (A0A2K5 entry or part of it limits assumed): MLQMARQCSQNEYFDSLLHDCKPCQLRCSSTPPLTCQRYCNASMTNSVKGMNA

[6] = target: human BCMA-His protein (human) (UniProt Q02223); assay: ELISA, human BCMA-His coated; Ab 1 nM
[7] = target: monkey BCMA-His protein (monkey); assay: ELISA, monkey BCMA-His coated; Ab 100 nM
[8] = target: human BCMA on cells (human) (UniProt Q02223); assay: cell ELISA, Flp-inCHO-human BCMA cells; Ab 0.05 nM
[9] = target: human BCMA on cells (human) (UniProt Q02223); assay: cell ELISA, Flp-inCHO-human BCMA cells; Ab 0.41 nM
[10] = target: monkey BCMA-His protein (monkey); assay: ELISA, monkey BCMA-His coated; Ab 0.1 nM
[11] = target: monkey BCMA-His protein (monkey); assay: ELISA, monkey BCMA-His coated; Ab 10 nM
[12] = target: human BCMA on cells (human) (UniProt Q02223); assay: FACS, U266 cells
[13] = target: human BCMA on cells (human) (UniProt Q02223); assay: FACS, H929 cells
[14] = target: monkey BCMA-His protein (monkey); assay: ELISA, monkey BCMA-His coated; Ab 0.001 nM
[15] = target: human BCMA on cells (human) (UniProt Q02223); assay: FACS, Flp-in CHO-human BCMA cells
[16] = target: human BCMA on cells (human) (UniProt Q02223); assay: FACS, RPMI8226 cells
[17] = target: human BCMA on cells (human) (UniProt Q02223); assay: cell ELISA, Flp-inCHO-human BCMA cells; Ab 0.01 nM
[18] = target: human BCMA on cells (human) (UniProt Q02223); assay: cell ELISA, Flp-inCHO-human BCMA cells; Ab 1.23 nM
[19] = target: monkey BCMA-His protein (monkey); assay: ELISA, monkey BCMA-His coated; Ab 100 nM; remark: listed apart in the source
[20] = target: human BCMA-His protein (human) (UniProt Q02223); assay: ELISA, human BCMA-His coated; Ab 100 nM
[21] = target: human BCMA on cells (human) (UniProt Q02223); assay: cell ELISA, Flp-inCHO-human BCMA cells; Ab 33.33 nM
[22] = target: monkey BCMA-His protein (monkey); assay: ELISA, monkey BCMA-His coated; Ab 0.001 nM; remark: listed apart in the source
[23] = target: monkey BCMA-His protein (monkey); assay: ELISA, monkey BCMA-His coated; Ab 1 nM; remark: listed apart in the source
[24] = target: human BCMA-His protein (human) (UniProt Q02223); assay: ELISA, human BCMA-His coated; Ab 0.001 nM
[25] = target: human BCMA on cells (human) (UniProt Q02223); assay: cell ELISA, Flp-inCHO-human BCMA cells; Ab 0.002 nM
[26] = target: monkey BCMA-His protein (monkey); assay: ELISA, monkey BCMA-His coated; Ab 0.01 nM
[27] = target: human BCMA-His protein (human) (UniProt Q02223); assay: ELISA, human BCMA-His coated; Ab 10 nM
[28] = target: monkey BCMA-His protein (monkey); assay: ELISA, monkey BCMA-His coated; Ab 0.0001 nM
[29] = target: human BCMA-His protein (human) (UniProt Q02223); assay: ELISA, human BCMA-His coated; Ab 0.1 nM
[30] = target: human BCMA-His protein (human) (UniProt Q02223); assay: ELISA, human BCMA-His coated; Ab 10 nM; remark: listed apart in the source
[31] = target: human BCMA on cells (human) (UniProt Q02223); assay: FACS, U266 cells; remark: listed apart in the source
[32] = target: monkey BCMA-His protein (monkey); assay: ELISA, monkey BCMA-His coated; Ab 0.0001 nM; remark: listed apart in the source
[33] = target: human BCMA-His protein (human) (UniProt Q02223); assay: ELISA, human BCMA-His coated; Ab 0.0001 nM
[34] = target: human BCMA on cells (human) (UniProt Q02223); assay: FACS, RPMI8226 cells; remark: listed apart in the source
[35] = target: human BCMA-His protein (human) (UniProt Q02223); assay: ELISA, human BCMA-His coated; Ab 0.0001 nM; remark: listed apart in the source
[36] = target: monkey BCMA-His protein (monkey); assay: ELISA, monkey BCMA-His coated; Ab 10 nM; remark: listed apart in the source
[37] = target: monkey BCMA-His protein (monkey); assay: ELISA, monkey BCMA-His coated; Ab 0.1 nM; remark: listed apart in the source
[38] = target: human BCMA on cells (human) (UniProt Q02223); assay: FACS, H929 cells; remark: listed apart in the source
[39] = target: human BCMA on cells (human) (UniProt Q02223); assay: cell ELISA, Flp-inCHO-human BCMA cells; Ab 100.00 nM
[40] = target: human BCMA on cells (human) (UniProt Q02223); assay: cell ELISA, Flp-inCHO-human BCMA cells; Ab 3.70 nM
[41] = target: human BCMA on cells (human) (UniProt Q02223); assay: cell ELISA, Flp-inCHO-human BCMA cells; Ab 0.02 nM
[42] = target: human BCMA-His protein (human) (UniProt Q02223); assay: competition ELISA vs hAPRIL-biotin on coated human BCMA; antibody 3.70 nM
[43] = target: human BCMA-His protein (human) (UniProt Q02223); assay: competition ELISA vs hAPRIL-biotin on coated human BCMA; antibody 0.14 nM
[44] = target: human BCMA-His protein (human) (UniProt Q02223); assay: competition ELISA vs hAPRIL-biotin on coated human BCMA; antibody 0.41 nM
[45] = target: human BCMA-His protein (human) (UniProt Q02223); assay: competition ELISA vs hAPRIL-biotin on coated human BCMA; antibody 11.11 nM
[46] = target: human BCMA-His protein (human) (UniProt Q02223); assay: competition ELISA vs hAPRIL-biotin on coated human BCMA; antibody 33.33 nM
[47] = target: human BCMA-His protein (human) (UniProt Q02223); assay: competition ELISA vs hAPRIL-biotin on coated human BCMA; antibody 1.23 nM
[48] = target: human BCMA-His protein (human) (UniProt Q02223); assay: competition ELISA vs hAPRIL-biotin on coated human BCMA; antibody 100.00 nM

Sequence of human BCMA on cells (human) (Q02223 whole entry): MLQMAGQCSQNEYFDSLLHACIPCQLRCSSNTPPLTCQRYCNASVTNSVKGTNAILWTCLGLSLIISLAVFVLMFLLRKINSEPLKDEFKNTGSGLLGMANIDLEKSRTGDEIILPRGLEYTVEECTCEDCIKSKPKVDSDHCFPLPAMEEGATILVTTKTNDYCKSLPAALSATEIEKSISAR

OD450 [1]: 0.08 and 0.09
Cell mean fluorescence density [2]: 49
OD450 [3]: 0.05
OD450 [4]: 0.08 and 0.1
OD450 [5]: 0.05
OD450 [6]: 0.05
OD450 [7]: 0.08 and 0.18
OD450 [8]: 0.08 and 0.09
OD450 [9]: 0.08 and 0.09
OD450 [10]: 0.05
OD450 [11]: 0.08
Maximum mean fluorescence intensity [12]: 103
Maximum mean fluorescence intensity [13]: 110
OD450 [14]: 0.06 and 0.17
Cell mean fluorescence density [15]: 54.6
Maximum mean fluorescence intensity [16]: 81 and 107
OD450 [17]: 0.08 and 0.09
OD450 [18]: 0.08 and 0.09
OD450 [19]: 0.1
OD450 [20]: 0.12
OD450 [21]: 0.09 and 0.14
OD450 [22]: 0.05
OD450 [23]: 0.06 and 0.17
OD450 [24]: 0.05
OD450 [25]: 0.08 and 0.09
OD450 [26]: 0.04
OD450 [27]: 0.07
OD450 [28]: 0.05
OD450 [29]: 0.05
OD450 [30]: 0.27 and 0.12
Maximum mean fluorescence intensity [31]: 86 and 101
OD450 [32]: 0.06 and 0.08
OD450 [33]: 0.06 and 0.09
Maximum mean fluorescence intensity [34]: 118
OD450 [35]: 0.05
OD450 [36]: 0.06
OD450 [37]: 0.08 and 0.19
Maximum mean fluorescence intensity [38]: 94 and 69
OD450 [39]: 0.11 and 0.28
OD450 [40]: 0.08 and 0.09
OD450 [41]: 0.08 and 0.1
Substance: anti-hel-hIgG1 (negative control antibody against hen egg lysozyme)

OD450 [42]: 1.38 OD450 and 1.29 OD450 and 1.53 OD450
OD450 [43]: 1.43 OD450 and 1.28 OD450 and 1.63 OD450
OD450 [44]: 1.41 OD450 and 1.31 OD450 and 1.48 OD450
OD450 [45]: 1.39 OD450 and 1.24 OD450 and 1.51 OD450
OD450 [46]: 1.41 OD450 and 1.31 OD450 and 1.46 OD450
OD450 [47]: 1.43 OD450 and 1.27 OD450 and 1.53 OD450
OD450 [48]: 1.54 OD450 and 1.45 OD450 and 1.57 OD450
Substance: anti-hel-hIgG1 (antibody)
